Laboratory results: article PMC7615827

Biological target: ABD-AS25 (albumin binding domain fused to monobody AS25; ABD-…-AS25-Cys)
Assay: ITC

Kd [nM] | stoichiometry N | Substance
42.4 | 1 | Bcr-Abl SH2 domain (from UniProt P00519 127-217) (domain or fragment)
5.11 | – | Human Serum Albumin (from UniProt P02768 25-609) (natural protein)
